Experimental data taken from patent US20190382504A1 (EUREKA THERAPEUTICS, published 2019).

How the values were obtained:
[1] = biological target: T1, biotinylated recombinant ESO157 wild type peptide/HLA-A*02:01 complex monomer (human); test: SPR (Biacore X100), biotinylated pMHC on streptavidin chip, BsAb as analyte
T1 construct: also called recombinant ESO157/HLA-A*02:01 complex; biotin-labelled ESO157 wild type peptide/HLA-A*02:01 complex

[2] = biological target: biotinylated recombinant ESO157/HLA-A*02:03 complex (human); test: BLI (Octet QK), biotinylated pMHC on streptavidin sensor, BsAb 10 ug/mL
[3] = biological target: biotinylated recombinant ESO157/HLA-A*02:05 complex (human); test: as above
[4] = biological target: biotinylated recombinant ESO157/HLA-A*02:02 complex (human); test: as above
[5] = biological target: biotinylated recombinant ESO157/HLA-A*02:06 complex (human); test: as above
[6] = biological target: biotinylated recombinant ESO157/HLA-A*02:02 complex (human); test: as above; remark: listed apart in the source
[7] = biological target: biotinylated recombinant ESO157/HLA-A*02:05 complex (human); test: as above; remark: listed apart in the source
[8] = biological target: biotinylated recombinant ESO157/HLA-A*02:11 complex (human); test: as above

B1: ESO157 BsAb #148 (anti-ESO157/HLA-A*02:01 scFv x anti-human CD3epsilon scFv, single chain) (bispecific antibody, V domains shown, not shown: small tags and cut ends)
VH: EVQLVQSGAEVKKPGASVKVSCKASGGTFSSYAISWVRQAPGQGLEWMGGIIPIFGTANYAQKFQGRVTITADKSTSTAYMELSSLRSEDTAVYYCARSYWSWTPYDPWGQGTLVTVSS
VL: LPVLTQPPSVSVAPGKTARITCGGNNIGSKSVHWYQQKPGQAPVLVIYYDSDRPSGIPERFSGSNSGNTATLTISRVEAGDEADYYCQVWDSSSDHYVFGTGTKVTVL
- Kd [1]: 6 nM
- koff [1]: 0.000902 s⁻¹
- kon [1]: 151000 M⁻¹ s⁻¹
- Kd [2]: 85 nM
- Kd [3]: 18 nM
- Kd [4]: 19 nM
- Kd [5]: 224 nM

B2: ESO157 BsAb #76 (anti-ESO157/HLA-A*02:01 scFv x anti-human CD3epsilon scFv, single chain) (bispecific antibody)
chain: QSVVTQPPSLSGAPGQRVTISCNGSGSNIGAGYDVHWYQQLPGTAPKLLIYGNSNRPSGVPDRFSGSKSGTSASLAITGLQAEDEADYYCQSYDSSLSGWGIFGGGTKLTVLGSRGGGGSGGGGSGGGGSLEMAEVQLVQSGAEVKKPGSSVKVSCKASGGTFSSYAISWVRQAPGQGLEWMGGIIPIFGTANYAQKFQGRVTITADESTSTAYMELSSLRSEDTAVYYCARYDSYVYDEWGQGTLVTVSS
- Kd [2]: 47 nM
- Kd [6]: 34 nM
- Kd [7]: 40 nM
- Kd [5]: 126 nM
- Kd [8]: 97 nM
